Data reported in US20180325979A1 (UNIVERSITY OF SOUTHAMPTON, published 2018).

Molecular target: T1, HLA-Cw*0102 on the HLA-Cw*0102-positive cell line L721.174
T1 construct: whole, on cells
Experiment: MHC class I stabilisation on L721.174 cells, flow cytometry

Binder | binding result
LNPSVAATL [peptide LNPSVAATL (SEQ ID NO: 5)] | binds
IVDLMCHATF (also called Dengue virus peptide) [peptide IVDLMCHATF (SEQ ID NO: 1)] | binds
